Measured values from patent publication US20080286287A1 (MURDOCH CHILDRENS RESEARCH INSTITUTE, published 2008).

What was measured:
Human-IGF-I = biological target: T1, Human-IGF-I (human, UniProt P05019 49-118); test: competitive radioligand binding in solution (125I-IGF-I vs unlabeled IGF-I), immunoprecipitation with anti-IGFBP-2, one-site fit
T1 construct: also called IGF-1
Excerpt: (§1) Table 4 tabulates data showing the effect of mutagenesis on the affinity of IGFBP-2 for the IGFs. The HBD, ₁₇₉PKKLRP₁₈₄, was mutated to ₁₇₉PNNLAP₁₈₄ and the ₂₆₅RGD₂₆₇ domain was mutated to ₂₆₅RGE₂₆₇. Native and mutant IGFBP-2 were purified by IGF-I affinity chromatography and quantified by an IGFBP-2 ELISA or radioimmuno assay (RIA) as described in the Examples. IGF binding affinities of the modified IGFBP-2 mutants were similar to those of native IGFBP-2.
(§2) The impact of these exemplary mutations in IGFBP-2 were tested to see if they affected IGF binding affinity. Native, HBD and RGD-IGFBP-2 (all 2.5 ng) were incubated with either ¹²⁵I-IGF-I or -II (15,000 cpm) in the presence of increasing concentrations of unlabeled IGF-I or -II (0.0025-0.15 nM). Binding was for 2 h at room temperature in 100 μl binding buffer [BB; 50 mM sodium phosphate pH 7.4, 0.1 M NaCl, 0.05% (w/v) NaN3, 0.2% fatty acid free BSA (Sigma, Steinheim, Germany), 0.1% (v/v) Triton X-100]. […] Bound radioactivity in precipitates was quantified in a γ-counter. Each point was measured in quadruplicate. […]

IGF-II = biological target: T2, IGF-II (UniProt P01344 25-91); test: competitive radioligand binding in solution (125I-IGF-II vs unlabeled IGF-II), immunoprecipitation with anti-IGFBP-2, one-site fit
T2 construct: also called unlabeled IGF-II
T2 sequence (P01344 25-91 limits assumed): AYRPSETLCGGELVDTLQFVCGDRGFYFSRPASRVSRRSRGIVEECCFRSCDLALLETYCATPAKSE
Excerpt: as §1, §2

T1 sequence (P05019 49-118 limits assumed): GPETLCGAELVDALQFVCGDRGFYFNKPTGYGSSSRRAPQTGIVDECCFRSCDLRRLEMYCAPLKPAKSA

B1: HBD-IGFBP-2 mutant (179PKKLRP184 mutated to 179PNNLAP184) (other)
chain: EVLFRCPPCTPERLAACGPPPVAPPAAVAAVAGGARMPCAELVREPGCGCCSVCARLEGEACGVYTPRCGQGLRCYPHPGSELPLQALVMGEGTCEKRRDAEYGASPEQVADNGDDHSEGGLVENHVDSTMNMLGGGGSAGRKPLKSGMKELAVFREKVTEQHRQMGKGGKHHLGLEEPNNLAPPPARTPCQQELDQVLERISTMRLPDERGPLEHLYSLHIPNCDKHGLYNLKQCKMSLNGQRGECWCVNPNTGKLIQGAPTIRGDPECHLFYNEQQEARGVHTQRMQ
notes: Positions are as printed; also called HBD modified IGFBP-2; PCS3
B1 was tested. Which Kd (Human-IGF-I) did it give?
The Kd was 1.45 nM.

And the Kd (IGF-II)?
The Kd was 0.52 nM.
